The record followed here is PMC2923024.

For the series, the system named is hnRNP A1, P09651-2. The series is described as follows: footprinting.

As for “GGAUGUUCUCUUCACUGUGGGAUGAGGUAGUAGGUUGUAUAGUUUUACCCUCACACCCACCACUGGGAGAUAACUAUACAAUCUACUGUCUUUCCUAACGUGAUAGAAAAGUCUGCA [pri-let-7a-1 GGG/CCC]”, the binding entry was “no binding”.
